Measurements taken from publication PMC10397247.

Assays:
4H1328-bN = molecular target: T1, 4H1328-bN; assay: two-hybrid library CCNG1;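 note: natural log of median RNA to DNA barcode read ratio; higher means stronger binding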
T1 chain: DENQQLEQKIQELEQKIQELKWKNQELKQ

4H1369-bN = molecular target: T2, 4H1369-bN; assay: two-hybrid library CCNG1;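 note: natural log of median RNA to DNA barcode read ratio; higher means stronger binding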
T2 chain: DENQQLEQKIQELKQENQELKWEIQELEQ

4H1446-bN = molecular target: T3, 4H1446-bN; assay: two-hybrid library CCNG1;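 note: natural log of median RNA to DNA barcode read ratio; higher means stronger binding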
T3 chain: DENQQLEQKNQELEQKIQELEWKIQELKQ

4H1845-bN = molecular target: T4, 4H1845-bN; assay: two-hybrid library CCNG1;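 note: natural log of median RNA to DNA barcode read ratio; higher means stronger binding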
T4 chain: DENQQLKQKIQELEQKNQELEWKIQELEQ

4H2576-bN = molecular target: T5, 4H2576-bN; assay: two-hybrid library CCNG1;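 note: natural log of median RNA to DNA barcode read ratio; higher means stronger binding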
T5 chain: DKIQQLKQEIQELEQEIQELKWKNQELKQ

4H2610-bN = molecular target: T6, 4H2610-bN; assay: two-hybrid library CCNG1;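 note: natural log of median RNA to DNA barcode read ratio; higher means stronger binding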
T6 chain: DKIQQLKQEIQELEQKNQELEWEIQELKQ

4H264-bH = molecular target: T7, 4H264-bH; assay: two-hybrid library CCNG1
T7 chain: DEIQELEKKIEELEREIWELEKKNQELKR

4H2667-bN = molecular target: T8, 4H2667-bN; assay: two-hybrid library CCNG1
T8 chain: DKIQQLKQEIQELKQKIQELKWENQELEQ

4H2697-bN = molecular target: T9, 4H2697-bN; assay: two-hybrid library CCNG1
T9 chain: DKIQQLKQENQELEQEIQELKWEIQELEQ

4H3189-bN = molecular target: T10, 4H3189-bN; assay: two-hybrid library CCNG1
T10 chain: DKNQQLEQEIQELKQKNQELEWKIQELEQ

4H331-bN = molecular target: T11, 4H331-bN; assay: two-hybrid library CCNG1
T11 chain: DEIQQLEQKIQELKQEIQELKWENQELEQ

4H3606-bN = molecular target: T12, 4H3606-bN; assay: two-hybrid library CCNG1
T12 chain: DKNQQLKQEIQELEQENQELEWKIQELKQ

4H370-bN = molecular target: T13, 4H370-bN; assay: two-hybrid library CCNG1
T13 chain: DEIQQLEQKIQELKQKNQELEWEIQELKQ

4H3782-bN = molecular target: T14, 4H3782-bN; assay: two-hybrid library CCNG1
T14 chain: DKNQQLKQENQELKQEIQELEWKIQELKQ

4H3843-bN = molecular target: T15, 4H3843-bN; assay: two-hybrid library CCNG1
T15 chain: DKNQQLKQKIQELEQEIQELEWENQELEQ

4H4001-bN = molecular target: T16, 4H4001-bN; assay: two-hybrid library CCNG1
T16 chain: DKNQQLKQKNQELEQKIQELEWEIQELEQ

4H462-bN = molecular target: T17, 4H462-bN; assay: two-hybrid library CCNG1
T17 chain: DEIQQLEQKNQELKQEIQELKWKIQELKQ

4H568-bN = molecular target: T18, 4H568-bN; assay: two-hybrid library CCNG1
T18 chain: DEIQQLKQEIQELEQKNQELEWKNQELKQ

4H607-bN = molecular target: T19, 4H607-bN; assay: two-hybrid library CCNG1
T19 chain: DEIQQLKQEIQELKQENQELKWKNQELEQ

4H687-bN = molecular target: T20, 4H687-bN; assay: two-hybrid library CCNG1
T20 chain: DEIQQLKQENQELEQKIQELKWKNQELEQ

4H72-bN = molecular target: T21, 4H72-bN; assay: two-hybrid library CCNG1
T21 chain: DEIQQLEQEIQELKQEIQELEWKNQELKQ

4H797-bN = molecular target: T22, 4H797-bN; assay: two-hybrid library CCNG1
T22 chain: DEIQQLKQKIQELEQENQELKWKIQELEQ

4H883-bN = molecular target: T23, 4H883-bN; assay: two-hybrid library CCNG1
T23 chain: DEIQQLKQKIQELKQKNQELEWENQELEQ

4H918-bN = molecular target: T24, 4H918-bN; assay: two-hybrid library CCNG1
T24 chain: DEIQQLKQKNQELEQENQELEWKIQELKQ

4H953-bN = molecular target: T25, 4H953-bN; assay: two-hybrid library CCNG1
T25 chain: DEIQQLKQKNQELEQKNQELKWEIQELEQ

4H967-bN = molecular target: T26, 4H967-bN; assay: two-hybrid library CCNG1
T26 chain: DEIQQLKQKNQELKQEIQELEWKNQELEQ

4H1035-AA = molecular target: T27, 4H1035-AA; assay: two-hybrid library CCmax
T27 chain: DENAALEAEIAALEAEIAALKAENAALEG

4H1064-AA = molecular target: T28, 4H1064-AA; assay: two-hybrid library CCmax; conditions: mean of both orientations
T28 chain: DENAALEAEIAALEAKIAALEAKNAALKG

4H1109-AA = molecular target: T29, 4H1109-AA; assay: two-hybrid library CCmax; conditions: mean of both orientations
T29 chain: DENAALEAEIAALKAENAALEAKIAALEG

4H1146-AA = molecular target: T30, 4H1146-AA; assay: two-hybrid library CCmax; conditions: mean of both orientations
T30 chain: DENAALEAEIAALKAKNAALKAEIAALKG

4H1348-AA = molecular target: T31, 4H1348-AA; assay: two-hybrid library CCmax; conditions: mean of both orientations
T31 chain: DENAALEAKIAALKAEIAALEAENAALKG

4H1391-AA = molecular target: T32, 4H1391-AA; assay: two-hybrid library CCmax; conditions: mean of both orientations
T32 chain: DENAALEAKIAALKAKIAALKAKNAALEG

4H146-AA = molecular target: T33, 4H146-AA; assay: two-hybrid library CCmax
T33 chain: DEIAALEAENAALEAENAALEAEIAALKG

4H1809-AA = molecular target: T34, 4H1809-AA; assay: two-hybrid library CCmax; conditions: mean of both orientations
T34 chain: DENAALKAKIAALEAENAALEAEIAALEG

4H1854-AA = molecular target: T35, 4H1854-AA; assay: two-hybrid library CCmax; conditions: mean of both orientations
T35 chain: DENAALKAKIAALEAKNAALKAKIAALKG

4H189-AA = molecular target: T36, 4H189-AA; assay: two-hybrid library CCmax; conditions: mean of both orientations
T36 chain: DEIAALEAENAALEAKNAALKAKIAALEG

4H2248-AA = molecular target: T37, 4H2248-AA; assay: two-hybrid library CCmax; conditions: mean of both orientations
T37 chain: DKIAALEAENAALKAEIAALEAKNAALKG

4H2283-AA = molecular target: T38, 4H2283-AA; assay: two-hybrid library CCmax; conditions: mean of both orientations
T38 chain: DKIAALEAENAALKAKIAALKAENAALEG

4H2713-AA = molecular target: T39, 4H2713-AA; assay: two-hybrid library CCmax
T39 chain: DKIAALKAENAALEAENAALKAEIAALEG

4H2742-AA = molecular target: T40, 4H2742-AA; assay: two-hybrid library CCmax; conditions: mean of both orientations
T40 chain: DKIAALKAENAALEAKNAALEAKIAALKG

4H2948-AA = molecular target: T41, 4H2948-AA; assay: two-hybrid library CCmax; conditions: mean of both orientations
T41 chain: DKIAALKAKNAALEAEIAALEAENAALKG

4H2991-AA = molecular target: T42, 4H2991-AA; assay: two-hybrid library CCmax; conditions: mean of both orientations
T42 chain: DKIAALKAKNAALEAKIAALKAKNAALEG

4H3029-AA = molecular target: T43, 4H3029-AA; assay: two-hybrid library CCmax; conditions: mean of both orientations
T43 chain: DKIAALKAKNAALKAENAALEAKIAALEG

4H3066-AA = molecular target: T44, 4H3066-AA; assay: two-hybrid library CCmax; conditions: mean of both orientations
T44 chain: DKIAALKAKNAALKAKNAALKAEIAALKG

4H3102-AA = molecular target: T45, 4H3102-AA; assay: two-hybrid library CCmax; conditions: mean of both orientations
T45 chain: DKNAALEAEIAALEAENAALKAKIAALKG

4H3121-AA = molecular target: T46, 4H3121-AA; assay: two-hybrid library CCmax; conditions: mean of both orientations
T46 chain: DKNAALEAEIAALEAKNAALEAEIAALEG

4H3417-AA = molecular target: T47, 4H3417-AA; assay: two-hybrid library CCmax; conditions: mean of both orientations
T47 chain: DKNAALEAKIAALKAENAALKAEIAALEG

4H3446-AA = molecular target: T48, 4H3446-AA; assay: two-hybrid library CCmax; conditions: mean of both orientations
T48 chain: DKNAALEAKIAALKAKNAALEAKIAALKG

4H3591-AA = molecular target: T49, 4H3591-AA; assay: two-hybrid library CCmax; conditions: mean of both orientations
T49 chain: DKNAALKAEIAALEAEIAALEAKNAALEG

4H3628-AA = molecular target: T50, 4H3628-AA; assay: two-hybrid library CCmax; conditions: mean of both orientations
T50 chain: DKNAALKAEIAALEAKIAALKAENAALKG

4H3666-AA = molecular target: T51, 4H3666-AA; assay: two-hybrid library CCmax; conditions: mean of both orientations
T51 chain: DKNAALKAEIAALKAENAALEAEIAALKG

4H3709-AA = molecular target: T52, 4H3709-AA; assay: two-hybrid library CCmax; conditions: mean of both orientations
T52 chain: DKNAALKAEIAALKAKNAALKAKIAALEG

4H391-AA = molecular target: T53, 4H391-AA; assay: two-hybrid library CCmax; conditions: mean of both orientations
T53 chain: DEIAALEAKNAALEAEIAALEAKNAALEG

4H3920-AA = molecular target: T54, 4H3920-AA; assay: two-hybrid library CCmax; conditions: mean of both orientations
T54 chain: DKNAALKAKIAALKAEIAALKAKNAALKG

4H3939-AA = molecular target: T55, 4H3939-AA; assay: two-hybrid library CCmax; conditions: mean of both orientations
T55 chain: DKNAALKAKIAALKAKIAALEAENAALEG

4H428-AA = molecular target: T56, 4H428-AA; assay: two-hybrid library CCmax; conditions: mean of both orientations
T56 chain: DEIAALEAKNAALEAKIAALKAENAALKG

4H478-AA = molecular target: T57, 4H478-AA; assay: two-hybrid library CCmax; conditions: mean of both orientations
T57 chain: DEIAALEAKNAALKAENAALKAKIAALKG

4H497-AA = molecular target: T58, 4H497-AA; assay: two-hybrid library CCmax; conditions: mean of both orientations
T58 chain: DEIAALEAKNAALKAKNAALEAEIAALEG

4H656-AA = molecular target: T59, 4H656-AA; assay: two-hybrid library CCmax; conditions: mean of both orientations
T59 chain: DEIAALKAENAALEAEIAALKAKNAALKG

4H675-AA = molecular target: T60, 4H675-AA; assay: two-hybrid library CCmax; conditions: mean of both orientations
T60 chain: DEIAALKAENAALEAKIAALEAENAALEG

4H971-AA = molecular target: T61, 4H971-AA; assay: two-hybrid library CCmax; conditions: mean of both orientations
T61 chain: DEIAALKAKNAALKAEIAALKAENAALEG

Binder: DENQQLEQKIQELEQKIQELKWKNQELKQ [4H1328-bN]
- interaction score (4H1328-bN): 0.393
- interaction score (4H1369-bN): -0.223
- interaction score (4H1446-bN): 0.527
- interaction score (4H1845-bN): -1.61
- interaction score (4H2576-bN): 1.57
- interaction score (4H2610-bN): 0.84
- interaction score (4H264-bH): 1.68
- interaction score (4H2667-bN): 1.46
- interaction score (4H2697-bN): -0.465
- interaction score (4H3189-bN): -0.232
- interaction score (4H331-bN): 1.8
- interaction score (4H3606-bN): -0.42
- interaction score (4H370-bN): -0.748
- interaction score (4H3782-bN): -1.38
- interaction score (4H3843-bN): 1.16
- interaction score (4H4001-bN): 1.19
- interaction score (4H462-bN): -1.6
- interaction score (4H568-bN): -0.31
- interaction score (4H607-bN): -0.376
- interaction score (4H687-bN): 0.403
- interaction score (4H72-bN): 0.764
- interaction score (4H797-bN): -0.686
- interaction score (4H883-bN): 0.625
- interaction score (4H918-bN): -0.287
- interaction score (4H953-bN): -0.513
- interaction score (4H967-bN): 0.0544

Binder: DENAALEAEIAALEAEIAALKAENAALEG [4H1035-AA]
- interaction score (4H1035-AA): -0.719
- interaction score (4H1064-AA): -0.486
- interaction score (4H1109-AA): -1.69
- interaction score (4H1146-AA): -1.34
- interaction score (4H1348-AA): 1.45
- interaction score (4H1391-AA): 0.63
- interaction score (4H146-AA): -1.39
- interaction score (4H1809-AA): -1.83
- interaction score (4H1854-AA): -0.616
- interaction score (4H189-AA): -1.24
- interaction score (4H2248-AA): -1.39
- interaction score (4H2283-AA): -1.67
- interaction score (4H2713-AA): -1.63
- interaction score (4H2742-AA): -1.51
- interaction score (4H2948-AA): -1.56
- interaction score (4H2991-AA): -1.12
- interaction score (4H3029-AA): -2.17
- interaction score (4H3066-AA): -0.363
- interaction score (4H3102-AA): -1.34
- interaction score (4H3121-AA): -1.67
- interaction score (4H3417-AA): -1.73
- interaction score (4H3446-AA): -1.17
- interaction score (4H3591-AA): -1.08
- interaction score (4H3628-AA): 1.36
- interaction score (4H3666-AA): -1.55
- interaction score (4H3709-AA): -0.573
- interaction score (4H391-AA): -1.84
- interaction score (4H3920-AA): 1.9
- interaction score (4H3939-AA): 0.466
- interaction score (4H428-AA): -1.35
- interaction score (4H478-AA): -1.03
- interaction score (4H497-AA): -1.73
- interaction score (4H656-AA): -1.67
- interaction score (4H675-AA): -2.03
- interaction score (4H971-AA): -0.881
